This note sets out measurements from US20200102349A1 (REGENTS OF THE UNIVERSITY OF MICHIGAN, published 2020).

Where no end group is shown, it is not given here. Cy5.5 = Cy5.5 fluorophore

The target in experiment [1] is T1, Epidermal growth factor receptor (EGFR), human, on cells (human, UniProt P00533 25-1210).
T1 construct: whole, on cells; The expression level differs between cell lines (HT29 > SW480 > SW620); It is reduced in HT29 cells transfected with siEGFR
Nature of the experiment: apparent dissociation constant, flow cytometry on HT29 cells, 0-200 nM peptide, 4° C., R^2=0.95. As to the method:
We measured the apparent dissociation constant of the peptide to HT29 cells as an assessment of binding affinity. QRH*-Cy5.5 was serially diluted in PBS at concentrations of 0, 10, 25, 50, 75, 100, 125, 150 and 200 nM. HT29 cells (˜10⁵) were incubated with QRH*-Cy5.5 at 4° C. for 1 hour, washed with cold PBS, and the mean fluorescence intensities were measured on flow cytometry. The equilibrium dissociation constant kd=1/kₐ was calculated by performing a least squares fit of the data to the non-linear equation I=(I₀+Iₘₐₓkₐ[X])/([…]). I₀ and Iₘₐₓ are the initial and maximum fluorescence intensities, corresponding to no peptide and at saturation, respectively, and [X] represents the concentration of the bound peptide [Thomas et al., Clin Exp Metastasis, 26:105-119 (2009)]. Origin 6.1 data analysis software (OriginLab Corp) was used to calculate kd.
A general note: A flow cytometer gives signals particle by particle.

The target in experiment [2] is T1, Epidermal growth factor receptor …. Nature of the experiment: confocal fluorescence microscopy, FITC channel, OE21 cells.

In the case of QRHKPREGGGSK(Cy5.5)-NH2 (also called EGFR peptide) [QRH*-Cy5.5 (QRHKPRE peptide with GGGSK linker and Cy5.5 fluorophore)], the Kd in experiment [1] came out at 50 nM.

B1: FITC labeled SHRNRPRNTQPS (SHR*) peptide (peptide)
peptide: SHRNRPRNTQPS
modifications: also: FITC label, site not given here
notes: also called SHR*-FITC; FITC-labeled peptide
Turning to B1, the “fold fluorescence intensity against the GGG* control peptide” value in experiment [2] is above 5 fold.
